Data set [1] concerns the target T1, putrescine monooxygenase (SpPMO) (Shewanella putrefaciens, UniProt A0A4D6BRL2).
T1 construct: gene pubA
T1 sequence (A0A4D6BRL2 1-505): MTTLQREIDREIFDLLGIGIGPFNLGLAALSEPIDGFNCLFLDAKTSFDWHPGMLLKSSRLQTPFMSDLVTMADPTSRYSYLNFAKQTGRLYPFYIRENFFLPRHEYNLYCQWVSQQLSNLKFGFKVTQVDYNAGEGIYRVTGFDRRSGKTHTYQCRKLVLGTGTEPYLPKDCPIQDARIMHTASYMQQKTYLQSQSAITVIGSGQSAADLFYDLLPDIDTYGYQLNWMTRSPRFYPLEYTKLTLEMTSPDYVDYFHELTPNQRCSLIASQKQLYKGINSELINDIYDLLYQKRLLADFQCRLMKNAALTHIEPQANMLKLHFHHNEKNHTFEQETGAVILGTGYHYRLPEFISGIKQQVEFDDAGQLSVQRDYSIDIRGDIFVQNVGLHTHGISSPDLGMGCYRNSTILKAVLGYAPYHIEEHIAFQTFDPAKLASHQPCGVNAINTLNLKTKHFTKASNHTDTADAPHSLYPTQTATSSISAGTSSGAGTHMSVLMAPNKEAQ
In words: Csaky iodine oxidation product-formation assay with […] enzyme; Lineweaver-Burk plots. Format: biochemical.

Substrate in data set [2]: NCCCCN
The data set can be described thus: Michaelis-Menten kinetics, N-hydroxyl putrescine formation by Csaky iodine oxidation assay (Km). The conditions noted are these: FAD. It counts as biochemical, Shewanella putrefaciens.

Where [3] appears, read: NADPH putrescine binding pocket: Pro22, Phe23, Gly26, Leu399, Gly402 and Asn406 (docking).

Read-outs that look alike come from different tables or passages of the source.

Take `C[C@@H]1O[C@@H](Oc2ccc(CC#N)cc2)[C@H](O)[C@H](O)[C@H]1O` [niazirin]: the Ki in data set [1] (read-out: Ki) turned out to be 18.38 ± 0.008 µM.
`COc1cc(/C=C/C(=O)CC(=O)/C=C/c2ccc(O)c(OC)c2)ccc1O` [curcumin] displayed a Ki in data set [1] of 2.6 ± 0.0036 µM.

B1: putrescine monooxygenase (SpPMO) (Shewanella putrefaciens) (protein)
chain: MTTLQREIDREIFDLLGIGIGPFNLGLAALSEPIDGFNCLFLDAKTSFDWHPGMLLKSSRLQTPFMSDLVTMADPTSRYSYLNFAKQTGRLYPFYIRENFFLPRHEYNLYCQWVSQQLSNLKFGFKVTQVDYNAGEGIYRVTGFDRRSGKTHTYQCRKLVLGTGTEPYLPKDCPIQDARIMHTASYMQQKTYLQSQSAITVIGSGQSAADLFYDLLPDIDTYGYQLNWMTRSPRFYPLEYTKLTLEMTSPDYVDYFHELTPNQRCSLIASQKQLYKGINSELINDIYDLLYQKRLLADFQCRLMKNAALTHIEPQANMLKLHFHHNEKNHTFEQETGAVILGTGYHYRLPEFISGIKQQVEFDDAGQLSVQRDYSIDIRGDIFVQNVGLHTHGISSPDLGMGCYRNSTILKAVLGYAPYHIEEHIAFQTFDPAKLASHQPCGVNAINTLNLKTKHFTKASNHTDTADAPHSLYPTQTATSSISAGTSSGAGTHMSVLMAPNKEAQ
On to B1, for which the Km in data set [2] (NADPH) is 3.81 µM. In addition, in data set [2] (setting [3]), the maximal velocity (Vmax) stood at 0.246 µmol/min/mg and the kcat amounted to 0.237 s⁻¹.

One may read the Ki as a dissociation constant, usually derived from enzyme kinetics or from competition with a known ligand. Broadly, the Km is the substrate concentration at which the rate is half of its maximum. One may read the Vmax as the rate approached at saturating substrate. What is called kcat is the number of substrate molecules converted per active site and unit of time at saturation.

(Values after article PMC9005580, “In silico structural, phylogenetic and drug target analysis of putrescine monooxygenase from Shewanella putrefaciens-95” (Journal of Genetic Engineering & Biotechnology, 2022).)
